Patent US20230235090A1 (HARBOUR BIOMED US, published 2023)

Columns and labels:
human 4-1BB [1] = biological target: T1, human 4-1BB (human, UniProt Q07011 24-255); experiment: FACS, CHO-K1/hu 4-1BB cells [E]
T1 construct: whole, on cells; also called CD137; TNFRSF9
Procedure: (§1) Antibody binding experiments at the cellular level were conducted using a CHO-K1 cell strain overexpressing human 4-1BB (CHO-K1-hu 4-1BB, Genescript) and a CHO-K1 cell strain overexpressing cynomolgus monkey 4-1BB (CHO-K1-cyno 4-1BB, Genescript). Briefly, the CHO-K1-hu 4-1BB and CHO-K1-cyno 4-1BB cells were digested and resuspended in DMEM complete medium, and the cell density was adjusted to 1×10⁶ cells/mL. […] The cells were incubated at 4° C. for 1 h away from light. Thereafter, the cells in each well were rinsed twice with 100 μL of pre-cooled PBS, and centrifuged at 500 g at 4° C. for 5 min, and then the supernatant was discarded. […] The plate was incubated away from light at 4° C. for 30 min. The cells in each well were rinsed twice with 100 μL of pre-cooled PBS, and centrifuged at 500 g at 4° C. for 5 min, and then the supernatant was discarded. Finally, the cells in each well were resuspended in 200 μL of pre-cooled PBS, and the fluorescence signal values were read using a BD FACS CANTOII.

cynomolgus monkey 4-1BB [2] = biological target: T2, cynomolgus monkey 4-1BB (cynomolgus monkey); experiment: FACS, CHO-K1/cyno 4-1BB cells [E]
T2 construct: whole, on cells; also called CHO-K1-cyno 4-1BB; CHO-K1/cyno4-1BB
Procedure: (§2) This example is intended to investigate the in vitro binding activity of anti-human 4-1BB HCAb and H2L2 monoclonal antibodies to human and cynomolgus monkey 4-1BB. Antibody binding experiments at the cellular level were conducted using a CHO-K1 cell strain overexpressing human 4-1BB (CHO-K1-hu 4-1BB, Genescript) and a CHO-K1 cell strain overexpressing cynomolgus monkey 4-1BB (CHO-K1-cyno 4-1BB, Genescript). Briefly, the CHO-K1-hu 4-1BB and CHO-K1-cyno 4-1BB cells were digested and resuspended in DMEM complete medium, and the cell density was adjusted to 1×10⁶ cells/mL. […] The cells were incubated at 4° C. for 1 h away from light. Thereafter, the cells in each well were rinsed twice with 100 μL of pre-cooled PBS, and centrifuged at 500 g at 4° C. for 5 min, and then the supernatant was discarded. […] The plate was incubated away from light at 4° C. for 30 min. The cells in each well were rinsed twice with 100 μL of pre-cooled PBS, and centrifuged at 500 g at 4° C. for 5 min, and then the supernatant was discarded. Finally, the cells in each well were resuspended in 200 μL of pre-cooled PBS, and the fluorescence signal values were read using a BD FACS CANTOII.

cynomolgus monkey 4-1BB [3] = biological target: T2, cynomolgus monkey 4-1BB; experiment: FACS, CHO-K1/cyno 4-1BB cells [D]
Procedure: as §2

human 4-1BB [4] = biological target: T1, human 4-1BB; experiment: FACS, CHO-K1/hu 4-1BB cells [D]
Procedure: as §1

human 4-1BB [5] = biological target: T1, human 4-1BB; experiment: FACS, CHO-K1/hu 4-1BB cells [C]
Procedure: as §2

cynomolgus monkey 4-1BB [6] = biological target: T2, cynomolgus monkey 4-1BB; experiment: FACS, CHO-K1/cyno 4-1BB cells [C]
Procedure: as §2

human 4-1BB [7] = biological target: T1, human 4-1BB; experiment: FACS, CHO-K1/hu 4-1BB cells [A]
Procedure: as §2

cynomolgus monkey 4-1BB [8] = biological target: T2, cynomolgus monkey 4-1BB; experiment: FACS, CHO-K1/cyno 4-1BB cells [A]
Procedure: as §2

cynomolgus monkey 4-1BB [9] = biological target: T2, cynomolgus monkey 4-1BB; experiment: FACS, CHO-K1/cyno 4-1BB cells [F]
Procedure: as §2

human 4-1BB [10] = biological target: T1, human 4-1BB; experiment: FACS, CHO-K1/hu 4-1BB cells [F]
Procedure: as §2

cynomolgus monkey 4-1BB [11] = biological target: T2, cynomolgus monkey 4-1BB; experiment: FACS, CHO-K1/cyno 4-1BB cells [B]
Procedure: as §2

T1 sequence (Q07011 24-255): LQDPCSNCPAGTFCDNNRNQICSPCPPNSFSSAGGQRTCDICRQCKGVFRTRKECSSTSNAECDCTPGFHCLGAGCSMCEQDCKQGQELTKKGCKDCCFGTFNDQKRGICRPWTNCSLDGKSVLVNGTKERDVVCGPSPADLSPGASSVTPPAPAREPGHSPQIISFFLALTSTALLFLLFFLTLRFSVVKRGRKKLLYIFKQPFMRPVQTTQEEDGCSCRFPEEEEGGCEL

B1: PR001830 (antibody, human IgG1, V domains shown)
VH: EVQLLESGGGLVQPGGSLRLSCTASGFTFSNYAMSWVRQAPEKGLEWVSSISGSGGSTFYADSVKGRFTISRDNSKNTLYLQMNSLRAEDTAVYFCAKEGSSETDDHYYNVDVWGQGTTVTVSS
notes: anti-4-1BB HCAb, human IgG1 Fc
- EC50 (human 4-1BB [1]): 209 pM
- Maximum MFI (human 4-1BB [1]): 1830 MFI
- EC50 (cynomolgus monkey 4-1BB [2]): 899 pM
- Maximum MFI (cynomolgus monkey 4-1BB [2]): 14000 MFI

B2: PR001780 (antibody, human IgG1, V domains shown)
VH: EVQLLESGGGLIQPGGSLRLSCAASGFTFSSFAMTWVRQAPGKGLEWVSTISGSGDNTYYADSVKGRFTISRDNSKNTLYLQMNSLRAEDTAVYFCAKEDTAVASDYYYNIDVWGQGTTVTVSS
notes: as for B1
- EC50 (cynomolgus monkey 4-1BB [3]): 2990 pM
- Maximum MFI (cynomolgus monkey 4-1BB [3]): 55500 MFI
- EC50 (human 4-1BB [4]): 708 pM
- Maximum MFI (human 4-1BB [4]): 1700 MFI

B3: PR001771 (antibody, human IgG1, V domains shown)
VH: EVQLLESGGGLVQPGGSLRLSCAASGFTFSNYAMTWVRQPPGKGLEWVSSISGSGGSTYYADSVKGRFTISRDNSKNTLYLQMNSLRAEDTAVYYCAKEGTGTTSDYYYNVDVWGQGTTVTVSS
notes: as for B1
- EC50 (human 4-1BB [5]): 532 pM
- Maximum MFI (human 4-1BB [5]): 1720 MFI
- EC50 (cynomolgus monkey 4-1BB [6]): 3770 pM
- Maximum MFI (cynomolgus monkey 4-1BB [6]): 65700 MFI

B4: PR001758 (antibody, human IgG1, V domains shown)
VH: EVQLLESGGGLVQLGGSLRLSCAASGFTFSRYAMTWVRQAPEKGLEWVSSISGSGDDTYYGDSVKGRFTISRDNSQNTVYLQMNSLRAEDTAVYFCAKEKAGTTGDYYYNVDVWGQGTTVTVSS
notes: anti-4-1BB fully human heavy-chain-only antibody (HCAb): VH fused to human IgG1 Fc
- EC50 (human 4-1BB [7]): 212 pM
- Maximum MFI (human 4-1BB [7]): 1640 MFI
- EC50 (cynomolgus monkey 4-1BB [8]): 575 pM
- Maximum MFI (cynomolgus monkey 4-1BB [8]): 11200 MFI

B5: PR001781 (antibody, human IgG1, V domains shown)
VH: EVQLLESGGGLVQLGGSLRLSCAASGFTFSSYAMTWVRQAPEKGLEWVSSISGSGGNTYYADSVKGRFTISRDNSKNTLYLQMNSLRAEDTAVYYCAKERTGTTGDYYYNVDVWGQGTTVTVSS
notes: as for B1
- EC50 (cynomolgus monkey 4-1BB [3]): 3100 pM
- Maximum MFI (cynomolgus monkey 4-1BB [3]): 58300 MFI
- EC50 (human 4-1BB [4]): 492 pM
- Maximum MFI (human 4-1BB [4]): 1760 MFI

B6: PR001840 (antibody, human IgG1, V domains shown)
VH: EVQLVESGGGLVQPGGSLRLSCAASGFTFSSYWMHWVRQAPGKGLVWVSRINSDGSSTSYADSVQGRFTISRDNAKNTLYLQMNSLRAEDTAVYYCVRKGSSSYYHYSIEDDWGQGTLVTVSS
notes: as for B1
- EC50 (cynomolgus monkey 4-1BB [9]): 1250 pM
- Maximum MFI (cynomolgus monkey 4-1BB [9]): 7300 MFI
- EC50 (human 4-1BB [10]): 370 pM
- Maximum MFI (human 4-1BB [10]): 1670 MFI

B7: PR001774 (antibody, human IgG1, V domains shown)
VH: EVQLVESGGGLVQPGGSLRLSCAASGFTFSSFAMTWVRQAPEKGLEWVSTISGSGDTTYYADSVKGRFTISRDSSKNTLYLQMNSLRAEDSAVYFCAKEATAMASDYYYGVDVWGQGTTVTVSS
notes: as for B1
- EC50 (human 4-1BB [5]): 1270 pM
- Maximum MFI (human 4-1BB [5]): 1540 MFI
- EC50 (cynomolgus monkey 4-1BB [6]): 6730 pM
- Maximum MFI (cynomolgus monkey 4-1BB [6]): 48000 MFI

B8: PR001763 (antibody, human IgG1, V domains shown)
VH: EVQLLESGGGLVQPGGSLRLSCTASGFTFSNYAMSWVRQAPEKGLEWVSSISGSGGSTFYADSVKGRFTISRDNSKNTLYLQMNRLTAEDTAVYYCAKEGSNGTDDYHYDIDVWGQGTTVTVSS
notes: as for B1
- EC50 (human 4-1BB [7]): 616 pM
- Maximum MFI (human 4-1BB [7]): 1600 MFI
- Maximum MFI (cynomolgus monkey 4-1BB [11]): 57700 MFI
